Experimental data taken from PMC11203576 (International Journal of Molecular Sciences, 2024).

Biological target: T1, SARS-CoV-2 spike protein RBD, original (wild-type), sfGFP fusion (SARS-CoV-2, UniProt P0DTC2)
T1 construct: also called original RBD; original SARS-CoV-2 RBD
Experiment: SPR; Biacore T200; […] (0.01 M HEPES, 0.15 M NaCl, 3 mM EDTA, 0.05% surfactant P20, […]
Conditions: both partners purified

B1: Recombinant Microcystis viridis NIES-102 lectin (rMVL) (natural protein)
chain: MASYKVNIPAGPLWSNAEAQQVGPKIAAAHQGNFTGQWTTVVESAMSVVEVELQVENTGIHEFKTDVLAGPLWSNDEAQKLGPQIAASYGAEFTGQWRTIVEGVMSVIQIKYTF
notes: also called Microcystis viridis lectin
- Kd: 2080 nM
